The source of these data is the PETadex activity labels (doi:10.1002/cbic.202200516).

Holding throughout (details): 50 °C
Substrate in one data set: BHET
Substrate in another data set: PET-02mer
Substrate in a further data set: MHET

B1: unnamed (protein)
chain: MNFPRASRLMQAAVLGGLMAVSAAATAQTNPYARGPNPTAASLEASAGPFTVRSFTVSRPSGYGAGTVYYPTNAGGTVGAIAIVPGYTARQSSIKWWGPRLASHGFVVITIDTNSTLDQPSSRSSQQMAALRQVASLNGTSSSPIYGKVDTARMGVMGWSMGGGGSLISAANNPSLKAAAPQAPWDSSTNFSSVTVPTLIFACENDSIAPVNSSALPIYDSMSRNAKQFLEINGGSHSCANSGNSNQALIGKKGVAWMKRFMDNDTRYSTFACENPNSTRVSDFRTANCS
With B1, in the data set with BHET (part of the chain shown), the Km stood at 1400 µM, the kcat is 4.8 s⁻¹ and the kcat/Km worked out at 3430 M⁻¹ s⁻¹. In addition, in the data set with PET-02mer (part of the chain shown), the Km amounted to 58 µM, the kcat was 23 s⁻¹ and the specificity constant (kcat/Km) turned out to be 397000 M⁻¹ s⁻¹.

B2: unnamed (protein)
chain: MDGVLWRVRTAALMAALLALAAWALVWASPSVEAQSNPYQRGPNPTRSALTADGPFSVATYTVSRLSVSGFGGGVIYYPTGTSLTFGGIAMSPGYTADASSLAWLGRRLASHGFVVLVINTNSRFDYPDSRASQLSAALNYLRTSSPSAVRARLDANRLAVAGHSMGGGGTLRIAEQNPSLKAAVPLTPWHTDKTFNTSVPVLIVGAEADTVAPVSQHAIPFYQNLPSTTPKVYVELDNASHFAPNSNNAAISVYTISWMKLWVDNDTRYRQFLCNVNDPALSDFRTNNRHCQ
As to B2, in the data set with BHET, the Michaelis-Menten constant (Km) came to 960 µM, the kcat stood at 6.2 s⁻¹ and the kcat/Km was 6460 M⁻¹ s⁻¹. In addition, in the data set with MHET, the Km is 1200 µM, the kcat came to 0.048 s⁻¹ and the kcat/Km stood at 40 M⁻¹ s⁻¹. Besides, in the data set with PET-02mer, the Km was 790 µM, the kcat is 300 s⁻¹ and the kcat/Km was determined as 380000 M⁻¹ s⁻¹.

B3: unnamed (protein)
chain: MAVMTPRRERSSLLSRALQVTAAAATALVTAVSLAAPAHAANPYERGPNPTDALLEASSGPFSVSEENVSRLSASGFGGGTIYYPRENNTYGAVAISPGYTGTEASIAWLGERIASHGFVVITIDTITTLDQPDSRAEQLNAALNHMINRASSTVRSRIDSSRLAVMGHSMGGGGTLRLASQRPDLKAAIPLTPWHLNKNWSSVTVPTLIIGADLDTIAPVATHAKPFYNSLPSSISKAYLELDGATHFAPNIPNKIIGKYSVAWLKRFVDNDTRYTQFLCPGPRDGLFGEVEEYRSTCPF
Regarding B3, in the data set with BHET, the Km worked out at 230 µM, the catalytic constant (kcat) was determined as 1.1 s⁻¹ and the kcat/Km was determined as 4780 M⁻¹ s⁻¹. Also, in the data set with MHET, the Km was 3800 µM, the kcat amounted to 0.043 s⁻¹ and the kcat/Km came out at 11.3 M⁻¹ s⁻¹. Further, in the data set with PET-02mer, the Km is 170 µM, the kcat came to 62 s⁻¹ and the kcat/Km amounted to 365000 M⁻¹ s⁻¹.

A word on the Km: it is the substrate concentration at which the rate is half of its maximum. As a reminder, the kcat is the number of substrate molecules converted per active site and unit of time at saturation. A word on the kcat/Km: it is the turnover number divided by the Michaelis constant.
